The source of these data is publication PMC10130748 (Life Science Alliance, 2023).

Positions of bridges follow the written chain, without caps; N, C: chain ends. No end group written: not given here.

The assay concerns the target T1, CD62P (P-selectin) lectin domain (residues 1–117), wild type.
T1 construct: CD62P (P-selectin) C-type lectin domain, residues 1-117; cDNA chemically synthesized, BamHI/EcoRI site of pET28a; also called CD62P lectin domain; C-type lectin domain of CD62P; not shown: His tag from pET28a ([residues removed]), N-terminal, kept
T1 chain: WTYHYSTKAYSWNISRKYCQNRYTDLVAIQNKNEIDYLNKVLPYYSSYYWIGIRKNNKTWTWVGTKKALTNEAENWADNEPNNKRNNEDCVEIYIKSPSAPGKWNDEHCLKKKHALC
In words: ELISA; wells coated with the CD62P lectin domain (20 μg/ml), blocked with BSA; site 2 peptides fused to GST (100 μg/ml); bound GST detected with HRP-conjugated anti-GST. As to conditions: both partners purified. In general terms: In an ELISA, binding on a coated surface is turned into a signal by an enzyme label.

B1: cyclic site 2 peptide of integrin β3 (residues 260–288, C273S) fused to GST (peptide)
chain: CRLAGIVQPNDGQSHVGSDNHYSASTTMC
modifications: disulfide 1-29 (inferred); also: fused to GST
notes: also called cyclic site 2 peptide from β3; site 2 peptide of β3
Turning to B1, the binding result is reported as “binds”.

B2: cyclic site 2 peptide of integrin β1 (residues 268–295, C281S) fused to GST (peptide)
chain: CKLGGIVLPNDGQSHLENNMYTMSHYYC
modifications: disulfide 1-28 (inferred); also: fused to GST
notes: also called cyclic site 2 peptide from β1; site 2 peptide from β1
Take B2: the binding result was “binds”.
